Experiment [1] deals with T1, recombinant SARS-CoV-2 S1 (Examples 1 and 2) (SARS-CoV-2, UniProt P0DTC2 16-685).
T1 construct: domain: Subunit 1 (S1); also called Subunit 1 (S1) domain; S1 domains
As to the kind of experiment: ELISA with sera of DMAb-treated mice. On the technique in general: In an ELISA, binding on a coated surface is turned into a signal by an enzyme label.

The target in experiment [2] is T2, recombinant SARS-CoV-2 receptor binding domain (RBD) (Examples 1 and 2) (SARS-CoV-2, UniProt P0DTC2 319-541).
T2 construct: also called SARS-CoV-2 RBD
As to the kind of experiment: ELISA, axis RBD Binding (OD450), serial dilutions of in vitro expressed DMAb.

Experiment [3] addresses SARS-CoV-2 Spike protein on pseudovirus (wild type) (SARS-CoV-2, UniProt P0DTC2 14-1273). As to the kind of experiment: cell-based or functional assay.
Experiment [4] concerns the target recombinant SARS-CoV-2-RBD (Sino Biological) (SARS-CoV-2, UniProt P0DTC2 319-541).
Experiment [5] addresses T2, recombinant SARS-CoV-2 receptor binding …. As to the kind of experiment: ELISA, axis RBD Binding (OD450), D14 sera of mice given the S309 DMAb.

One may read the Kd as a measure of binding affinity in units of concentration. One may read the koff as the first-order rate constant of dissociation. For orientation: kon means the rate constant with which the complex forms.

B1: 2381 DMAb (antibody)
heavy: not shown
light: EVVLTQSPGTLSLSPGERATLSCRASQSVSSSYLAWYQQKPGQAPRLLIYGASSRATGIPDRFSGSGSGTDFTLTISRLEPEDFAVYHCQHFGSSSQWTFGQGTKVEIKRTVAAPSVFIFPPSDEQLKSGTASVVCLLNNFYPREAKVQWKVDNALQSGNSQESVTEQDSKDSTYSLSNTLTLSKADYEKHKVYACEVTHQGLSSPVTKSFNRGEC
Consider B1, for which, in experiment [1], the binding result is “binds”.

B2: 2381 (GK) (antibody)
heavy: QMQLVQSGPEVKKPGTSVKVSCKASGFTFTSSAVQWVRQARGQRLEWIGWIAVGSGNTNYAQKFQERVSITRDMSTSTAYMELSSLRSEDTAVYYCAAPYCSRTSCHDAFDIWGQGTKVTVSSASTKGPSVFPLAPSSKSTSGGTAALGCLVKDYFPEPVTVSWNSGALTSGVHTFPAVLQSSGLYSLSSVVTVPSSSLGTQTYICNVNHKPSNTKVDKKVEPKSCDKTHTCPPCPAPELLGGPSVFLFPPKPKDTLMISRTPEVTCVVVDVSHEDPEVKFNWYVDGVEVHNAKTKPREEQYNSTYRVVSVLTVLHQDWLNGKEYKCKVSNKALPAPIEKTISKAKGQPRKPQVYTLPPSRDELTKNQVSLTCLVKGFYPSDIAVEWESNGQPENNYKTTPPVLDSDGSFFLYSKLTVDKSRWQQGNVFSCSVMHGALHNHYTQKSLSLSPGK
light: B1 light
B2: the binding result in experiment [2] is given as “binds”.

B3: 2196 DMAb (antibody, V domains shown)
VH: QMQLVQSGPEVKKPGTSVKVSCKASGFTFTSSAVQWVRQARGQRLEWIGWIAVGSGNTNYAQKFQERVSITRDMSTSTAYMELSSLRSEDTAVYYCAAPYCSSISCNDGFDIWGQGTKVTVSS
VL: EVVLTQSPGTLSLSPGERATLSCRASQSVSSSYLAWYQQKPGQAPRLLIYGASSRATGIPDRFSGSGSGTDFTLTISRLEPEDFAVYHCQHYGSSSQWTFGQGTKVEIKR
notes: also called 2196 WT DMAb
Turning to B3, the binding result in experiment [1] and in experiment [2] was “binds” each time.

B4: 2381 (G) (antibody)
heavy: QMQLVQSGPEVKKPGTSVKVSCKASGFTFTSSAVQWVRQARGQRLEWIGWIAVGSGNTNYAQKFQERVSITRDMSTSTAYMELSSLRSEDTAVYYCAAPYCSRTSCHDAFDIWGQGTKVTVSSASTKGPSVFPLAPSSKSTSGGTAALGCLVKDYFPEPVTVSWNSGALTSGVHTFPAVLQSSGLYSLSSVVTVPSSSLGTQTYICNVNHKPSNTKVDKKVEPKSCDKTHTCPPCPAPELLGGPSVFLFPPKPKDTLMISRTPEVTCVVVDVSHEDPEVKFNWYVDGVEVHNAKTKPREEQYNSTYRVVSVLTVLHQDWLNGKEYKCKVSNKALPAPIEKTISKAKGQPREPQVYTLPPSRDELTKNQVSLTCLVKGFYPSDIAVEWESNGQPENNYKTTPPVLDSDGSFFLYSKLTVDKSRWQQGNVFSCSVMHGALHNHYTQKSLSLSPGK
light: B1 light
Consider B4, for which, in experiment [2], the binding result is listed as “binds”.

B5: WCoVA9 (antibody, V domains shown)
VH: EVQLQQSGAELVKPGASVKLSCTASGFNIKDTYMHWVKQRPEQGLEWIGRIDPANGNTKYDPKFQAKATITANTSSNTAYLHLSSLTSEDTAVYYCAPYYDYVGAMDYWGQGTSVTVSS
VL: DIQMTQSPASQSASLGESVTITCLASQTIGTWLAWYQQKPGKSPQLLIYAATSLADGVPSRFSGSGSGTKFSFKISSLQAEDFVSYYCQQLYNTPLTFGGGTKLEIK
As for B5, the “IC50, pseudovirus neutralization (wild type virus)” value in experiment [3] was 4.9 ng/mL. Also, in experiment [4], the Kd was 0.042 nM, the koff came out at 1.9e-05 s⁻¹, the kon turned out to be 470000 M⁻¹ s⁻¹ and the t1/2 amounted to 10.1 h.

B6: WCoVA7 (antibody, V domains shown)
VH: EVKLLESGGGLVQPGGSLKLSCAASGFDFSRYWMSWVRQAPGKGLEWIGEINPDSSTINYTPSLKDKFIISRDNAKNTLYLQMSKVRSEDTALYYCARIYYGSPGAMDYWGQGTSVTVSS
VL: SIVMTQTPKFLLVSAGDRVTITCKASQSVSNDVAWYQQKPGQSPKLLIYYASNRYTGVPDRFTGSGYGTDFTFTISTVQAEDLAVYFCQQDYFSPYTFGGGTKLEIK
As for B6, the “IC50, pseudovirus neutralization (wild type virus)” value in experiment [3] stood at 2.6 ng/mL. Moreover, in experiment [4], the Kd was 0.28 nM, the koff amounted to 9.3e-05 s⁻¹, the kon was found to be 330000 M⁻¹ s⁻¹ and the t1/2 was 2.07 h.

B7: S309 SARS-CoV-2 DMAb (antibody, V domains shown)
VH: QVQLVQSGAEVKKPGASVKVSCKASGYTFTSYGISWVRQAPGQGLEWMGWISAYNGNTNYAQKLQGRVTMTTDTSTSTAYMELRSLRSDDTAVYYCARDYTRGAWFGESLIGGFDNWGQGTLVTVSA
VL: EIVLTQSPGTLSLSPGERATLSCRASQSVSSSYLAWYQQKPGQAPRLLIYGASSRATGIPDRFSGSGSGTDFTLTISRLEPEDFAVYYCQQHDTSLTFGQGTKVEIKR
notes: also called S309 DMAb
As to B7, the binding result in experiment [5] is “binds”.
